Measured values: patent US8722622B2, “FGF21 conjugates and anti-diabetic uses thereof” (COVX Technologies Ireland, Limited, priority 2010, dated 2014)
Where two headings read alike, the source gives them in different places.

B1: FGF21ΔH-Knull-P2: FGF21 lysine-null mutant, SEQ ID NO:22 (protein, listed as Homo sapiens)
chain: PIPDSSPLLQFGGQVRQRYLYTDDAQQTEAHLEIREDGTVGGAADQSPESLLQLRALRPGVIQILGVRTSRFLCQRPDGALYGSLHFDPEACSFRELLLEDGYNVYQSEAHGLPLHLPGNRSPHRDPAPRGPARFLPLPGLPPAPLEPPGILAPQPPDVGSSDPLSMVGPSQGRSPSYAS
B2: L2-FGF21ΔH-A129C: Linker-2 conjugated to FGF21ΔH-A129C protein (Table 4; Table 5 row L2) (conjugate, UniProt Q9NSA1 29-209, looked up, variant H1* A129C)
Fibroblast growth factor 21: PIPDSSPLLQFGGQVRQRYLYTDDAQQTEAHLEIREDGTVGGAADQSPESLLQLKALKPGVIQILGVKTSRFLCQRPDGALYGSLHFDPEACSFRELLLEDGYNVYQSEAHGLPLHLPGNKSPHRDPCPRGPARFLPLPGLPPALPEPPGILAPQPPDVGSSDPLSMVGPSQGRSPSYAS
modifications: Linker-2 attached
B3: L4-FGF21ΔH-A129C: Linker-4 conjugated to FGF21ΔH-A129C protein (Table 4; Table 5 row L4) (conjugate, UniProt Q9NSA1 29-209, looked up, variant H1* A129C)
Fibroblast growth factor 21: PIPDSSPLLQFGGQVRQRYLYTDDAQQTEAHLEIREDGTVGGAADQSPESLLQLKALKPGVIQILGVKTSRFLCQRPDGALYGSLHFDPEACSFRELLLEDGYNVYQSEAHGLPLHLPGNKSPHRDPCPRGPARFLPLPGLPPALPEPPGILAPQPPDVGSSDPLSMVGPSQGRSPSYAS
modifications: Linker-4 attached
B4: FGF21ΔH-Knull-S181K: FGF21 lysine-null mutant with S181K, SEQ ID NO:24 (protein, listed as Homo sapiens)
chain: PIPDSSPLLQFGGQVRQRYLYTDDAQQTEAHLEIREDGTVGGAADQSPESLLQLRALRPGVIQILGVRTSRFLCQRPDGALYGSLHFDPEACSFRELLLEDGYNVYQSEAHGLPLHLPGNRSPHRDPAPRGPARFLPLPGLPPAPLEPPGILAPQPPDVGSSDPLSMVGPSQGRSPSYAK
B5: FGF21ΔH-H125C: FGF21 cysteine mutant, SEQ ID NO:6 (protein, listed as Homo sapiens)
chain: PIPDSSPLLQFGGQVRQRYLYTDDAQQTEAHLEIREDGTVGGAADQSPESLLQLKALKPGVIQILGVKTSRFLCQRPDGALYGSLHFDPEACSFRELLLEDGYNVYQSEAHGLPLHLPGNKSPCRDPAPRGPARFLPLPGLPPALPEPPGILAPQPPDVGSSDPLSMVGPSQGRSPSYAS
B6: L3-FGF21ΔH-A129C: Linker-3 conjugated to FGF21ΔH-A129C protein (Table 4; Table 5 row L3) (conjugate, UniProt Q9NSA1 29-209, looked up, variant H1* A129C)
Fibroblast growth factor 21: PIPDSSPLLQFGGQVRQRYLYTDDAQQTEAHLEIREDGTVGGAADQSPESLLQLKALKPGVIQILGVKTSRFLCQRPDGALYGSLHFDPEACSFRELLLEDGYNVYQSEAHGLPLHLPGNKSPHRDPCPRGPARFLPLPGLPPALPEPPGILAPQPPDVGSSDPLSMVGPSQGRSPSYAS
modifications: Linker-3 attached
B7: L1-FGF21ΔH-A129C: Linker-1 conjugated to FGF21ΔH-A129C protein (Table 4; Table 5 row L1) (conjugate, UniProt Q9NSA1 29-209, looked up, variant H1* A129C)
Fibroblast growth factor 21: PIPDSSPLLQFGGQVRQRYLYTDDAQQTEAHLEIREDGTVGGAADQSPESLLQLKALKPGVIQILGVKTSRFLCQRPDGALYGSLHFDPEACSFRELLLEDGYNVYQSEAHGLPLHLPGNKSPHRDPCPRGPARFLPLPGLPPALPEPPGILAPQPPDVGSSDPLSMVGPSQGRSPSYAS
modifications: Linker-1 attached
B8: FGF21ΔH-A129C: FGF21 cysteine mutant, SEQ ID NO:9 (protein, listed as Homo sapiens)
chain: PIPDSSPLLQFGGQVRQRYLYTDDAQQTEAHLEIREDGTVGGAADQSPESLLQLKALKPGVIQILGVKTSRFLCQRPDGALYGSLHFDPEACSFRELLLEDGYNVYQSEAHGLPLHLPGNKSPHRDPCPRGPARFLPLPGLPPALPEPPGILAPQPPDVGSSDPLSMVGPSQGRSPSYAS

What was measured:
[1] = tested on: Glut1 mRNA expression in differentiated 3T3-L1 adipocytes; assay: Glut1 Taqman assay; format: cell-based; details: 6 hrs
Experimental: Differentiated 3T3-L1 adipocytes were used to measure the Glut1 mRNA expression by qPCR method. Overnight serum starved day 10-14 differentiated 3T3-L1 adipocytes were treated with compounds for 6 hrs. Total RNA was extracted from these cells, and Glut1 and GAPDH mRNA expression was measured using a Quantitect Probe RT-PCR kit and running a quantitative real time PCR reaction in a Taqman machine (Applied Biosystems®). The bioactivity of the compounds was determined by a fold change in Glut1 mRNA levels normalized by the GAPDH mRNA levels from each sample. EC50 values as measurements of the potency of the compounds were obtained from the dose response curves in the assay.
3T3-L1 adipocytes were seeded at day 8 in 24-well tissue culture plates (Falcon®, Cat#353047), and incubated in DMEM complete medium (10% FBS, 2 mM L-glutamine, 1% P/S) at 37° C., 5% CO2. […] The medium was aspirated, and then RNA extracted from the cells using the RNeasy mini Kit according to the manufacturer's instructions. RNA was measured at A260 nm using the Spectramax® Plus spectrophotometer.

[2] = Stability of linkers L1-L4 conjugated to FGF21 (LC-MS); format: physicochemical; details: +4° C.
Experimental: The following experiment was performed to investigate the chemical stability over 2 weeks of the four linkers upon conjugation to FGF21: each linker was conjugated to FGF21, placed at +4° C. storage conditions, and aliquots were removed and quenched by freezing at specific time points, and linker stability was monitored by LCMS analysis.
The four linkers were dissolved in DMSO from lyophilized stock material. […] L1 was reacted with protein for 30 mins; L2, L3 and L4 were reacted for 2 hrs. The conjugation reaction was quenched by removal of excess linkers through size-exclusion resin. Conjugated FGF21ΔH-A129C protein was placed at +4° C. for stability storage. […] Analysis of linker stability was performed by LC-MS analysis to determine the relative amount of unconjugated protein, protein+linker conjugation, and single and double hydrolysis events of the conjugated protein+linker.
Linker hydrolysis is the critical analytical variable in this experiment. Hydrolysis was monitored by observing the subsequent addition of H2O to the FGF21-linker complex. A single addition of H2O, +(1) H2O, likely indicates the hydrolysis of the active AZD group that is present on all 4 linkers. The addition of a second H2O molecule, +(2) H2O, is a strong indicator of hydrolysis (eg—chemical instability) in the linker. L1 is particularly susceptible because of the presence of a maleimide functional group.

[3] = differentiated 3T3-L1 adipocytes, read-out: EC50 in Glut1 Taqman assay
[4] = 0 hrs, % of total measured protein

| Molecule | EC50 [1, 3] [nM] | 1 linker (protein+linker) ([2]; 0 hrs) [%] | +(1) H2O ([2]; 0 hrs) [%] | +(2) H2O ([2]; 0 hrs) [%] | 0 linker (unconjugated protein) [2, 4] [%] | 0 linker (unconjugated protein) ([2]; 24 hrs) [%] | 1 linker (protein+linker) ([2]; 24 hrs) [%] | +(1) H2O ([2]; 24 hrs) [%] | +(2) H2O ([2]; 24 hrs) [%] | 0 linker (unconjugated protein) ([2]; 72 hrs) [%] | 1 linker (protein+linker) ([2]; 72 hrs) [%] | +(1) H2O ([2]; 72 hrs) [%] | +(2) H2O ([2]; 72 hrs) [%] | 0 linker (unconjugated protein) ([2]; 168 hrs) [%] | 1 linker (protein+linker) ([2]; 168 hrs) [%] | +(1) H2O ([2]; 168 hrs) [%] | +(2) H2O ([2]; 168 hrs) [%] | 0 linker (unconjugated protein) ([2]; 336 hrs) [%] | 1 linker (protein+linker) ([2]; 336 hrs) [%] | +(1) H2O ([2]; 336 hrs) [%] | further results |
| --- | --- | --- | --- | --- | --- | --- | --- | --- | --- | --- | --- | --- | --- | --- | --- | --- | --- | --- | --- | --- | --- |
| B1 | 1.2 |  |  |  |  |  |  |  |  |  |  |  |  |  |  |  |  |  |  |  |  |
| B2 |  | 45 | 27 | 6 | 22 | 23 | 43 | 26 | 8 | 24 | 37 | 32 | 8 | 24 | 40 | 29 | 7 | 26 | 38 | 28 | +(2) H2O ([2]; 336 hrs (2 weeks)): 8% |
| B3 |  | 46 | 28 | 6 | 20 | 20 | 46 | 27 | 7 | 21 | 42 | 30 | 7 | 21 | 41 | 32 | 6 | 22 | 41 | 31 | +(2) H2O ([2]; 336 hrs (2 weeks)): 6% |
| B4 | 7.5 |  |  |  |  |  |  |  |  |  |  |  |  |  |  |  |  |  |  |  |  |
| B5 | 1.2 |  |  |  |  |  |  |  |  |  |  |  |  |  |  |  |  |  |  |  |  |
| B6 |  | 45 | 30 | 6 | 19 | 18 | 47 | 27 | 8 | 19 | 43 | 30 | 8 | 19 | 43 | 29 | 8 | 20 | 43 | 29 | +(2) H2O ([2]; 336 hrs (2 weeks)): 8% |
| B7 |  | 49 | 30 | 8 | 13 | 14 | 41 | 34 | 11 | 14 | 40 | 35 | 11 | 10 | 33 | 40 | 18 | 12 | 28 | 41 | +(2) H2O ([2]; 336 hrs (2 weeks)): 18% |
| B8 | 1.4 |  |  |  |  |  |  |  |  |  |  |  |  |  |  |  |  |  |  |  | EC50 ([1]; 3T3-L1 adipocytes, Taqman quantitative real-time PCR, read-out: Glut1 RNA expression EC50): 16 nM; Glut1 induction in 3T3-L1 adipocytes [1]: dose-dependent Glut1 induction |
